According to paper PMC10497406, “PCNA recruits cohesin loader Scc2 to ensure sister chromatid cohesion” (Nature Structural & Molecular Biology, 2023):
Where a chain is given by its changes, count along the chain named. Names and notes keep the numbering of the source.

T1: GST–Scc2^C1100 (Scc2 amino acids 394–1493 fused to GST) (S. cerevisiae, UniProt Q04002 394-1493)
T1 construct: also called nearly full-length Scc2 fused to GST; not shown: GST, N-terminal, kept
T1 sequence (looked up): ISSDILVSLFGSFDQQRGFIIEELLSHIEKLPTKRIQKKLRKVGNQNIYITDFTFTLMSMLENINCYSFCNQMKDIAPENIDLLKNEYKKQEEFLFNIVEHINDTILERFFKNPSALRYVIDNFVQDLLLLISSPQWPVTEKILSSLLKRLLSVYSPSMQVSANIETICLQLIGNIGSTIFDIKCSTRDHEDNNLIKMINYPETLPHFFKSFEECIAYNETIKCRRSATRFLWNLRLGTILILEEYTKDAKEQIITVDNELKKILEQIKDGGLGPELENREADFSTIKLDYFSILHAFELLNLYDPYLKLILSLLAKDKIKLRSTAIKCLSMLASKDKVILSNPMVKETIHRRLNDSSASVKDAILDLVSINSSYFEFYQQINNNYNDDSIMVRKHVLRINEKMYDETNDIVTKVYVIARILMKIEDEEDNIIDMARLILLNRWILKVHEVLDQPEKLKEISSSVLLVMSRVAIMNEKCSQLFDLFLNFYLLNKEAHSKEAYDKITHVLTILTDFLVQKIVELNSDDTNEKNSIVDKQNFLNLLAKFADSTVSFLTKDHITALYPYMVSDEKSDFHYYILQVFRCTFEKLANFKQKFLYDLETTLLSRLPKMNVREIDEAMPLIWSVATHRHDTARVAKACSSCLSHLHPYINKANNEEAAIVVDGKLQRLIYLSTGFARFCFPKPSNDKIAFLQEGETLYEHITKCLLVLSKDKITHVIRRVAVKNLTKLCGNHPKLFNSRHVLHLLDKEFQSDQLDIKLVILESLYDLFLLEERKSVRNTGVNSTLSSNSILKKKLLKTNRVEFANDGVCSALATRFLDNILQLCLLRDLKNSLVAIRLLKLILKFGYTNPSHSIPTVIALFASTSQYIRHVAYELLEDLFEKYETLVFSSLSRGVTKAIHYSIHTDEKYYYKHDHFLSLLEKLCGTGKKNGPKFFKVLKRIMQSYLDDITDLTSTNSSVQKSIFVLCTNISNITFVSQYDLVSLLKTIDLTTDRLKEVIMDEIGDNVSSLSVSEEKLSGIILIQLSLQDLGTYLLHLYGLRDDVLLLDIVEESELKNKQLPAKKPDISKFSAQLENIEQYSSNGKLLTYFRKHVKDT

B1: N-terminally His-tagged yeast Pol30 (PCNA) (natural protein, S. cerevisiae, UniProt P15873 1-258, looked up)
chain: MLEAKFEEASLFKRIIDGFKDCVQLVNFQCKEDGIIAQAVDDSRVLLVSLEIGVEAFQEYRCDHPVTLGMDLTSLSKILRCGNNTDTLTLIADNTPDSIILLFEDTKKDRIAEYSLKLMDIDADFLKIEELQYDSTLSLPSSEFSKIVRDLSQLSDSINIMITKETIKFVADGDIGSGSVIIKPFVDMEHPETSIKLEMDQPVDLTFGAKYLLDIIKGSSLSDRVGIRLSSEAPALFQFDLKSGFLQFFLAPKFNDEE
notes: Pol30 (PCNA), S. cerevisiae; no measurement of the oligomer here; also called HisPol30; yeast PCNA; not shown: His, N-terminal, kept
B2: GST–NIPBL^(C202 WT) (chicken NIPBL residues 2582–2783 fused to GST) (domain or fragment, UniProt F1NJ66 2582-2783, looked up)
chain: ANSKITEEVKRSIVKQYLDFKLLMEHLDPDEEEEDGEVSASTNARNKAITSLLGGGSPKNNAAETEDDESDGEDRGGGTSGSLRRSKRNSDSTELASQMNESVDVMDVIAICCPKYKDRPQIARVVQKTSNGFSVQWMAGSYSGSWTEAKRRDGRKLVPWVDTIKESDIIYKKIALTSANKLTNKVVQTLRSLYAAKDGTSS
notes: also called NIPBL C-terminal fragment (C202); not shown: GST, N-terminal, kept
B3: GST–NIPBL^(C202 pip1) (chicken NIPBL residues 2582–2783 with PIP1 mutated, fused to GST) (domain or fragment, UniProt F1NJ66 2582-2783, looked up)
chain: B2 chain with Q16A, L18A, F20A
notes: also called NIPBL^Q2597A,L2599A,F2601A; not shown: GST, N-terminal, kept
B4: GST–NIPBL-pip2 (chicken NIPBL amino acids 2764–2783, Q2769A,L2771A,Y2775A, fused to GST) (domain or fragment, UniProt F1NJ66 2764-2783, looked up)
chain: TNKVVATARSLAAAKDGTSS
notes: not shown: GST, N-terminal, kept
B5: GST–Scc2PIP (Scc2 residues 1476–1493 fused to GST) (domain or fragment, S. cerevisiae, UniProt Q04002 1476-1493, looked up)
chain: YSSNGKLLTYFRKHVKDT
notes: also called PIP of Scc2 fused to GST; last 18 amino acids of Scc2; not shown: GST, N-terminal, kept
B6: GST–NIPBL-PIP2 (chicken NIPBL amino acids 2764–2783 fused to GST) (domain or fragment, UniProt F1NJ66 2764-2783, looked up)
chain: TNKVVQTLRSLYAAKDGTSS
notes: as for B4

How the values were obtained:
Settings in all cases: both partners purified
[1] = biological target: T1, GST–Scc2^C1100 (Scc2 amino acids …); assay: pull-down; GST–Scc2 fusions on glutathione Sepharose 4B beads, purified His-tagged yeast Pol30 (2.5 μg) in 0.7 ml binding buffer (1× PBS, 150 mM NaCl, 1% Triton X-100), overnight at 4 °C; western blot with anti-Pol30
[2] = biological target: T2, N-terminally His-tagged chicken PCNA (chicken, UniProt Q9DEA3 1-262); assay: pull-down; GST–NIPBL fusions (chicken) on glutathione Sepharose 4B beads, recombinant N-terminally His-tagged chicken PCNA; blots with anti-PCNA and anti-GST
T2 construct: PCNA, chicken; also called HisPCNA; recombinant chicken PCNA; not shown: His, N-terminal, kept

[3] = biological target: B1; assay: pull-down; GST–Scc2 fusions on glutathione Sepharose 4B beads, purified His-tagged yeast Pol30 (2.5 μg) in 0.7 ml binding buffer (1× PBS, 150 mM NaCl, 1% Triton X-100), overnight at 4 °C; western blot with anti-Pol30

T2 sequence (Q9DEA3 whole entry, the tested form may be a part): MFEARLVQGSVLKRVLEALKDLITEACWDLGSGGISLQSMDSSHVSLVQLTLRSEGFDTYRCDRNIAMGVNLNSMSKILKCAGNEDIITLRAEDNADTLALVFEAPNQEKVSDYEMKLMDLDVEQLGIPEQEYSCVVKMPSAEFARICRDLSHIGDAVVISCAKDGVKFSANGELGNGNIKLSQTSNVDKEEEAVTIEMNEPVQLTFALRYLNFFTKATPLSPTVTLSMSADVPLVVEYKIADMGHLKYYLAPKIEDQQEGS

Row | binding result [2] | Binder | further results
1 | – | B1 | binding result [1]: binds
2 | binds | B2 | –
3 | binds | B3 | –
4 | binds | B4 | –
5 | – | B5 | binding result [3]: binds
6 | binds | B6 | –
